This note sets out measurements from publication PMC3361065 (Biochemistry, 2012).

In data set [1] the target is T1, yeast MtRNAP with residues 1-264 deleted (ΔN2) (yeast, UniProt P13433 265-1351).
T1 sequence (looked up): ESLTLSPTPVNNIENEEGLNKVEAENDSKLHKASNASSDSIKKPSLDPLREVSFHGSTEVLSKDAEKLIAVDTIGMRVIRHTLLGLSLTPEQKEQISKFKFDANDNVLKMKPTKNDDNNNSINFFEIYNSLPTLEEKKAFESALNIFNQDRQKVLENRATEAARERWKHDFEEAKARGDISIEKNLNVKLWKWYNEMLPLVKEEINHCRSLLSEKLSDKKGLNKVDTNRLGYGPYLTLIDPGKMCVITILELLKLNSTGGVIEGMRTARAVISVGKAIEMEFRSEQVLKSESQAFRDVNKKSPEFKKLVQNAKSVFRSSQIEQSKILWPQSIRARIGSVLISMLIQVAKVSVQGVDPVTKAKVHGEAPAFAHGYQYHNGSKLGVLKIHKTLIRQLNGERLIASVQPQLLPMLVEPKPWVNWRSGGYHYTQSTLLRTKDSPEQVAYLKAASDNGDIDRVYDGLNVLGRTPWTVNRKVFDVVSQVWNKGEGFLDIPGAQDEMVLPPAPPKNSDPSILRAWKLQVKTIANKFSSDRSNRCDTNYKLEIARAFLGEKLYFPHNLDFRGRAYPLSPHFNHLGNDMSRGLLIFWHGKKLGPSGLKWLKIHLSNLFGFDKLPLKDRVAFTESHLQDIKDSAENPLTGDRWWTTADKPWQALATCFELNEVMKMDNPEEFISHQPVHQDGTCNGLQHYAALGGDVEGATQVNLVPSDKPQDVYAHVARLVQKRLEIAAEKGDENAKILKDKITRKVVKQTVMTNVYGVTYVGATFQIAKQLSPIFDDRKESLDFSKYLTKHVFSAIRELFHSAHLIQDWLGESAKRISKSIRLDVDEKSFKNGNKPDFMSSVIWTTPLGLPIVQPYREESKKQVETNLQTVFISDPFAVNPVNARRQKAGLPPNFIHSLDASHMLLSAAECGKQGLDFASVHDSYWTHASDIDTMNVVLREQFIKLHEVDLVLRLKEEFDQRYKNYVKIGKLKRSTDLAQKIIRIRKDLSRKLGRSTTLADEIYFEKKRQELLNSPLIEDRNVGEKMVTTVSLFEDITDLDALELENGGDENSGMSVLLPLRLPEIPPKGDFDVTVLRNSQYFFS
Kind of data set: native gel or EMSA.

Data set [2] addresses T2, yeast MtRNAP with residues 1-358 deleted (ΔN1) (yeast, UniProt P13433 359-1351).
T2 sequence (looked up): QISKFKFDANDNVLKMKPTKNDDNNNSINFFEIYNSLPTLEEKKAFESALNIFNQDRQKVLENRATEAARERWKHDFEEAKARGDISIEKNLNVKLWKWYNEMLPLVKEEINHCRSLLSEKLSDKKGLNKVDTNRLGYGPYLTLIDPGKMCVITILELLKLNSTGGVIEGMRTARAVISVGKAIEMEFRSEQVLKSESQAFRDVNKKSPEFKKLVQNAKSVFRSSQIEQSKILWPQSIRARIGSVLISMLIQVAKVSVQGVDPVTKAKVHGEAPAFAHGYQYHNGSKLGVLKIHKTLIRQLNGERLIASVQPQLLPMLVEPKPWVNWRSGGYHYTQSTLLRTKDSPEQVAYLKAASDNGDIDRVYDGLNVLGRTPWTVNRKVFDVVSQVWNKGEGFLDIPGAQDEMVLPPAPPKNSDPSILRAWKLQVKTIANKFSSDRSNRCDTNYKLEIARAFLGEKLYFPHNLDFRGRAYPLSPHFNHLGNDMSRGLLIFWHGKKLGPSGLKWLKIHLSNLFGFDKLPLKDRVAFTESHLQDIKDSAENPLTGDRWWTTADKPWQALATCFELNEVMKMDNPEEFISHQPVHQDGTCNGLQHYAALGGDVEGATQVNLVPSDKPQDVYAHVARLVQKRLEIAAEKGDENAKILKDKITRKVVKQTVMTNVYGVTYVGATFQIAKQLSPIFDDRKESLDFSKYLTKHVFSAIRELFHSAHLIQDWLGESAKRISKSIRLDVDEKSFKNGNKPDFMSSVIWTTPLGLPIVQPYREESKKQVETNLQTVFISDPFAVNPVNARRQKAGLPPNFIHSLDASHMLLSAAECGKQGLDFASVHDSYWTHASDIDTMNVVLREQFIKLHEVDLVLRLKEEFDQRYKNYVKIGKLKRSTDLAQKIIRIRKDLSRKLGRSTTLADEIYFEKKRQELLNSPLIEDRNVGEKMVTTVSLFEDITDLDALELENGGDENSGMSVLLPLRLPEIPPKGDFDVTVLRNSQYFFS
Kind of data set: ultrafiltration retention.

Data set [3] concerns the target yeast mitochondrial RNA polymerase (scMtRNAP) WT;MTF1 (yeast mitochondrial transcription factor) (Saccharomyces cerevisiae?;Saccharomyces …, UniProt P13433;P14908 1-1351;1-341, |). The experiment in a line: EMSA.

yeast mitochondrial RNA polymerase (scMtRNAP) WT;MTF1 (yeast mitochondrial transcription factor), sequence (P13433 whole entry, chain 1 of 2, one chain of several): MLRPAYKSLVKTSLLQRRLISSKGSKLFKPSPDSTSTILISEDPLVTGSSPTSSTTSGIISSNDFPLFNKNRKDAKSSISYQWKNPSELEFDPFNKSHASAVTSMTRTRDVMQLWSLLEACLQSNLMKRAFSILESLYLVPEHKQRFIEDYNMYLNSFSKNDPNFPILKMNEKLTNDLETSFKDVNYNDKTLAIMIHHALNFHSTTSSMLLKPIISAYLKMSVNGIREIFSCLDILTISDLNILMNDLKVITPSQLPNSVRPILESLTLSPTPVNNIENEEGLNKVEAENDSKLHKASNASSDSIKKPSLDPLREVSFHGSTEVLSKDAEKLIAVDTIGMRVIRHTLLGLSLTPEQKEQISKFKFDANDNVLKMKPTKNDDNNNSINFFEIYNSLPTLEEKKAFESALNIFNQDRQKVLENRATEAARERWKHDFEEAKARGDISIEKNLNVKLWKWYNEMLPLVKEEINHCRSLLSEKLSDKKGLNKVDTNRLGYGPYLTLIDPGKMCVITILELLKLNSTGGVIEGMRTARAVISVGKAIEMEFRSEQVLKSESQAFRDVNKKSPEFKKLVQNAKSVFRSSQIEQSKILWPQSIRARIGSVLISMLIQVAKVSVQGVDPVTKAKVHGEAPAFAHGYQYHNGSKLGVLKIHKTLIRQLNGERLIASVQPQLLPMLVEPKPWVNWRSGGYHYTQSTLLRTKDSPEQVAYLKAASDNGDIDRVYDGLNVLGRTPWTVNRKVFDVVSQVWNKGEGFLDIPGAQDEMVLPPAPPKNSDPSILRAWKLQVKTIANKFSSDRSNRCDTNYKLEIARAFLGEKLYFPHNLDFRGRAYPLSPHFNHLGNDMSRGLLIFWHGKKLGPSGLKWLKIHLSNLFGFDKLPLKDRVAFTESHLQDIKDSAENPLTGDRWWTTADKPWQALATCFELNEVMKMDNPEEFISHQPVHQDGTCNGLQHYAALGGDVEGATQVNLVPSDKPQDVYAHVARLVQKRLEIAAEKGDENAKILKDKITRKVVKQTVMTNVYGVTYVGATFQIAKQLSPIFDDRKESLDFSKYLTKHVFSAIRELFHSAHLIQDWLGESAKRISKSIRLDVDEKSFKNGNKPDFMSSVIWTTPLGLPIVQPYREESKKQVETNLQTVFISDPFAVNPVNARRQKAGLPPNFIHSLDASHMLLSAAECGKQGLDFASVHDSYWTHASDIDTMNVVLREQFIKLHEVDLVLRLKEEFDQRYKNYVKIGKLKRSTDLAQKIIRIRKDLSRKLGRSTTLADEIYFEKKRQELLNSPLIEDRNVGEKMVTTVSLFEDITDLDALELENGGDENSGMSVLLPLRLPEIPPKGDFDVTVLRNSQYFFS

B1: yeast mitochondrial transcription factor MTF1 (natural protein, UniProt P14908 1-341, looked up)
chain: MSVPIPGIKDISKLKFFYGFKYLWNPTVYNKIFDKLDLTKTYKHPEELKVLDLYPGVGIQSAIFYNKYCPRQYSLLEKRSSLYKFLNAKFEGSPLQILKRDPYDWSTYSNLIDEERIFVPEVQSSDHINDKFLTVANVTGEGSEGLIMQWLSCIGNKNWLYRFGKVKMLLWMPSTTARKLLARPGMHSRSKCSVVREAFTDTKLIAISDANELKGFDSQCIEEWDPILFSAAEIWPTKGKPIALVEMDPIDFDFDVDNWDYVTRHLMILKRTPLNTVMDSLGHGGQQYFNSRITDKDLLKKCPIDLTNDEFIYLTKLFMEWPFKPDILMDFVDMYQTEHSG
For the molecule B1, the binding result in data set [1] and in data set [2] was “binds” in each case.

B2: 33 bp Duplex promoter (dsDNA)
DNA 1: CGCGTAAAACTATTCTTTATTACTTATATCGCG
DNA 2: CGCGATATAAGTAATAAAGAATAGTTTTACGCG
For the molecule B2, in data set [3], the Kd came to 480 nM.
